Measured values taken from patent publication US20260284139 (published 2026).
Read-outs that look alike come from different tables or passages of the source. Where no end group is shown, it is not given here. [ ]: non-standard residue; d: D form. The star is where a group is joined. Octanoyl = CCCCCCCC(=O)*

T1: β-catenin (full-length recombinant) (human, UniProt P35222)
T1 chain: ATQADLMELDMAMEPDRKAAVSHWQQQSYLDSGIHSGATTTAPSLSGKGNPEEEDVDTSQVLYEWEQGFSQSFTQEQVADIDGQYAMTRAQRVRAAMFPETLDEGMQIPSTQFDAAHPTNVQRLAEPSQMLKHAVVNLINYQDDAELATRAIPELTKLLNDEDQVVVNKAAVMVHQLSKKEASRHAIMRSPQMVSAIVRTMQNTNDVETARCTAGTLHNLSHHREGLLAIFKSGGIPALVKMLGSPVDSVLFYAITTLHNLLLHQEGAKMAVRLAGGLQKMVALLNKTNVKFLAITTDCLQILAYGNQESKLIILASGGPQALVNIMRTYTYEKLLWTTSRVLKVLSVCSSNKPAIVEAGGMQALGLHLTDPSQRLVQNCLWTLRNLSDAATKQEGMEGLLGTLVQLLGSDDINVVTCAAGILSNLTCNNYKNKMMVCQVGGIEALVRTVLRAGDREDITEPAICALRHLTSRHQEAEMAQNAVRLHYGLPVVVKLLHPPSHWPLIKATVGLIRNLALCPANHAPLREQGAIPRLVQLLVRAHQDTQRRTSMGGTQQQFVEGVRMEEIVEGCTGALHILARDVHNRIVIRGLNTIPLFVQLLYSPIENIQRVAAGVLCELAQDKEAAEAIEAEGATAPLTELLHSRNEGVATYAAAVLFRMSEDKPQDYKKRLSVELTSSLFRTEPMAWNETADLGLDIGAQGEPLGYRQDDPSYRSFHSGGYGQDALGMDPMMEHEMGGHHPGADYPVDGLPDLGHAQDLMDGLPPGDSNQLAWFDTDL


How the values were obtained:
[1] = molecular target: T1, β-catenin (full-length recombinant)
[2] = molecular target: T1, β-catenin (full-length recombinant); experiment: competition, ALPHA assay vs BCL9 HD2 peptide, pH 6.5
[3] = molecular target: T1, β-catenin (full-length recombinant); experiment: FP, room temperature

Row | Binder | Kd [1] [nM] | IC50 [2] [nM] | Kd [3] [nM]
1 | BCL9 (protein) MHSSNPKVRSSPSGNTQSSPKSKQEVMVRPPTVMSPSGNPQLDSKFSNQGKQGGSASQSQPSPCDSKSGGHTPKALPGPGGSMGLKNGAGNGAKGKGKRERSISADSFDQRDPGTPNDDSDIKECNSADHIKSQDSQHTPHSMTPSNATAPRSSTPSHGQTTATEPTPAQKTPAKVVYVFSTEMANKAAEAVLKGQVETIVSFHIQNISNNKTERSTAPLNTQISALRNDPKPLPQQPPAPANQDQNSSQNTRLQPTPPIPAPAPKPAAPPRPLDRESPGVENKLIPSVGSPASSTPLPPDGTGPNSTPNNRAVTPVSQGSNSSSADPKAPPPPPVSSGEPPTLGENPDGLSQEQLEHRERSLQTLRDIQRMLFPDEKEFTGAQSGGPQQNPGVLDGPQKKPEGPIQAMMAQSQSLGKGPGPRTDVGAPFGPQGHRDVPFSPDEMVPPSMNSQSGTIGPDHLDHMTPEQIAWLKLQQEFYEEKRRKQEQVVVQQCSLQDMMVHQHGPRGVVRGPPPPYQMTPSEGWAPGGTEPFSDGINMPHSLPPRGMAPHPNMPGSQMRLPGFAGMINSEMEGPNVPNPASRPGLSGVSWPDDVPKIPDGRNFPPGQGIFSGPGRGERFPNPQGLSEEMFQQQLAEKQLGLPPGMAMEGIRPSMEMNRMIPGSQRHMEPGNNPIFPRIPVEGPLSPSRGDFPKGIPPQMGPGRELEFGMVPSGMKGDVNLNVNMGSNSQMIPQKMREAGAGPEEMLKLRPGGSDMLPAQQKMVPLPFGEHPQQEYGMGPRPFLPMSQGPGSNSGLRNLREPIGPDQRTNSRLSHMPPLPLNPSSNPTSLNTAPPVQRGLGRKPLDISVAGSQVHSPGINPLKSPTMHQVQSPMLGSPSGNLKSPQTPSQLAGMLAGPAAAASIKSPPVLGSAAASPVHLKSPSLPAPSPGWTSSPKPPLQSPGIPPNHKAPLTMASPAMLGNVESGGPPPPTASQPASVNIPGSLPSSTPYTMPPEPTLSQNPLSIMMSRMSKFAMPSSTPLYHDAIKTVASSDDDSPPARSPNLPSMNNMPGMGINTQNPRISGPNPVVPMPTLSPMGMTQPLSHSNQMPSPNAVGPNIPPHGVPMGPGLMSHNPIMGHGSQEPPMVPQGRMGFPQGFPPVQSPPQQVPFPHNGPSGGQGSFPGGMGFPGEGPLGRPSNLPQSSADAALCKPGGPGGPDSFTVLGNSMPSVFTDPDLQEVIRPGATGIPEFDLSRIIPSEKPSQTLQYFPRGEVPGRKQPQGPGPGFSHMQGMMGEQAPRMGLALPGMGGPGPVGTPDIPLGTAPSMPGHNPMRPPAFLQQGMMGPHHRMMSPAQSTMPGQPTLMSNPAAAVGMIPGKDRGPAGLYTHPGPVGSPGMMMSMQGMMGPQQNIMIPPQMRPRGMAADVGMGGFSQGPGNPGNMMF | ~200 | – | –
2 | Octanoyl-[dF][dR][dW][dL][dL][dR][dQ][dL][dA][dR][dL][dA][dQ][dL][dA][dK][dL][dT][dP][dV][dK][dL][dT][dP][dV] (also: FITC conjugate used in the FP assay) [ST316] | – | ~1000 | ~126
